Biological target: T1, EpCAM on KatoIII cells (human, UniProt P16422 24-314)
T1 sequence (looked up): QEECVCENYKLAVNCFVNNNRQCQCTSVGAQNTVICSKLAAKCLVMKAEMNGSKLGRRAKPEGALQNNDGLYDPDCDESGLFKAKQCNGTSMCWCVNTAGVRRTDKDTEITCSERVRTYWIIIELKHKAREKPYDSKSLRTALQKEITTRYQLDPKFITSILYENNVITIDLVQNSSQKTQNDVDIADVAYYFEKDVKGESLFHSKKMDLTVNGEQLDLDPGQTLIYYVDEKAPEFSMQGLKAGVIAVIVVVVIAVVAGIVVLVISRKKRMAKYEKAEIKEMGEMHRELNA
Assay: cell-based or functional assay

B1: EpCAMxCD3 bispecific single chain antibody MT110 (bispecific antibody)
chain: ELVMTQSPSSLTVTAGEKVTMSCKSSQSLLNSGNQKNYLTWYQQKPGQPPKLLIYWASTRESGVPDRFTGSGSGTDFTLTISSVQAEDLAVYYCQNDYSYPLTFGAGTKLEIKGGGGSGGGGSGGGGSEVQLLEQSGAELVRPGTSVKISCKASGYAFTNYWLGWVKQRPGHGLEWIGDIFPGSGNIHYNEKFKGKATLTADKSSSTAYMQLSSLTFEDSAVYFCARLRNWDEPMDYWGQGTTVTVSSGGGGSDVQLVQSGAEVKKPGASVKVSCKASGYTFTRYTMHWVRQAPGQGLEWIGYINPSRGYTNYADSVKGRFTITTDKSTSTAYMELSSLRSEDTATYYCARYYDDHYCLDYWGQGTTVTVSSGEGTSTGSGGSGGSGGADDIVLTQSPATLSLSPGERATLSCRASQSVSYMNWYQQKPGKAPKRWIYDTSKVASGVPARFSGSGSGTDYSLTINSLEAEDAATYYCQQWSSNPLTFGGGTKVEIK
**Q.** What does the source list for B1?
**A.** EC50 of CD25 upregulation on CD4+ T lymphocytes, human PBMC with 0.2% KatoIII cells, 40 h, flow cytometry: 3.5 ng/mL; EC50 of CD25 upregulation on CD4+ T lymphocytes, human PBMC with 2% KatoIII cells, 40 h, flow cytometry: 2.35 ng/mL; EC50 of CD25 upregulation on CD4+ T lymphocytes, human PBMC with 10% KatoIII cells, 40 h, flow cytometry: 0.8 ng/mL; EC50 of CD25 upregulation on CD8+ T lymphocytes, human PBMC with 0.2% KatoIII cells, 40 h, flow cytometry: 5.98 ng/mL; EC50 of CD25 upregulation on CD8+ T lymphocytes, human PBMC with 2% KatoIII cells, 40 h, flow cytometry: 0.99 ng/mL; EC50 of CD25 upregulation on CD8+ T lymphocytes, human PBMC with 10% KatoIII cells, 40 h, flow cytometry: 0.26 ng/mL

Source: patent US20120244161A1 (published 2012)
